Results: paper PMC4267640

Target: DNA polymerase alpha catalytic core (p180 core) (human, UniProt P09884 335-1257)
Experiment: X-ray crystallography

Chain of DNA polymerase alpha catalytic core (p180 core) (P09884 335-1257): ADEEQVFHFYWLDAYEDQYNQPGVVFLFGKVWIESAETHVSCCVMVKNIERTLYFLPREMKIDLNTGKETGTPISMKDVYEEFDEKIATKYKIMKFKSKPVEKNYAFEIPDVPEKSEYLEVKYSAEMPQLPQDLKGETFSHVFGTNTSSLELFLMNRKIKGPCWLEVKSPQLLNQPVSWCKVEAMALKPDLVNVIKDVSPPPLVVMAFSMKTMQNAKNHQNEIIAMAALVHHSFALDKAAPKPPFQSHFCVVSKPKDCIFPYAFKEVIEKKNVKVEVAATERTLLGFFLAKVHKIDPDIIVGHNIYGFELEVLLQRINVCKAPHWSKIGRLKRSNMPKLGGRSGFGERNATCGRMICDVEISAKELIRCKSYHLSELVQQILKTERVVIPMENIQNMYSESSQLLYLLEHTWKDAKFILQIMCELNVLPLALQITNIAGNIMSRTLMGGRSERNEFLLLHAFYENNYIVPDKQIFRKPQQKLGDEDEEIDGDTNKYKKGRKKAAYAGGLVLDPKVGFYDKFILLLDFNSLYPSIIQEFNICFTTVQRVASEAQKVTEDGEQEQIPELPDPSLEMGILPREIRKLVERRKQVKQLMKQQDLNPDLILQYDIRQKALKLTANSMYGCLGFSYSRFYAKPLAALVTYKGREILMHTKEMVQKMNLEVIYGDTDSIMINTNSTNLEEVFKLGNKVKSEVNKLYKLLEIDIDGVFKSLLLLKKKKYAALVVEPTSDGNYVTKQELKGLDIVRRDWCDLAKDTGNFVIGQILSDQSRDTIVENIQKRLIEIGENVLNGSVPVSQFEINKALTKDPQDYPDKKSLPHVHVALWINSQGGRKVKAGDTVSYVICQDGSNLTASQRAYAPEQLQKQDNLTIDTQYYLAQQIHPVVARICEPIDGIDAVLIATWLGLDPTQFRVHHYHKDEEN

B1: RNA-primed DNA template (DNA:RNA)
DNA: ATTACTATAGGCGCTCCAGGC
RNA: GCCUGGAGCGC
modifications: primer strand is RNA with a 3'-terminal dideoxycytidine (ddC)
B1: binds.
